Test results: the RNAGym collection of RNA variant scans (doi:10.1021/acssynbio.7b00057)

B1: Pistol ribozyme (parent)
chain: GGGUCGUUGUUCCAUAAUCGCGUGGAUAUGGCACGCAAGUUUCUACCGGGCACCGUAAAUGUCCGACUGGAGCCGUUCGGGCGGCUAUAAACAGACCUCAGGCCCGAAGCGUGGCGGCACCUGCCGCCGGUGGUAAAAAAGAUCGGAAGAGCACACGUCU

Variants of: B1
Test: aptazyme ON/OFF ratio, guanine; higher = stronger switching; co-transcriptional cleavage with and without guanine

Variant | aptazyme ON/OFF ratio
U7G G9A U10A U11A C13U | 1.2
U7C U8G U10G U11A C12G | 1.14
U7C U8G U11C C12G | 1.3
U7C G9A U10C U11G | 1.42
U7A U8G U10A U11G C12U C13A | 1.15
U7G G9A U10A U11C C13G | 1.08
U7C U8C G9A C12G C13G | 1.28
U7G U8C G9U U10G | 3.44
U7A G9A C12U C13A | 1.04
U7G G9C U11G C12A | 1.41
U7A U8G U10C U11A C12U C13G | 0.954
U7A U8C G9C U10G U11G C13G | 1.08
U7A U11A C12U C13G | 1.36
U7G U8A G9C U10C U11C C12A C13U | 1.03
U7A G9C U10C U11C C12U C13A | 1.05
U8A G9U U10C U11A C12U | 1.18
U7G U8C G9U U10G C12G | 1.5
U7G U8A G9A U10G U11C C12U C13G | 1.12
U7G U8C U11A C12U C13A | 1.2
U7A U8C G9C U10C U11C C12A C13U | 0.998
U7C U10C C12A | 1.26

Variant | aptazyme ON/OFF ratio
U7C U8C G9U U10G U11C C12A C13A | 1.18
U7G U8C G9C U10C U11G C13A | 1.07
U7G U8A G9C U11G C12A | 1.03
U8G G9C U11C C13A | 1.06
U8A G9U U10G U11C C12A C13G | 1.03
U7G U8A U10A U11C C12A C13U | 1.17
U7C U8C U10A U11C C12A C13A | 1.13
U7G G9A U10A U11C C12G | 1.22
U7C U8C G9C U10A C12U C13A | 1.11
U7A G9C U11C C12A | 1.09
U8G G9A U10C U11G C12U C13U | 1.21
U7A U8C G9A U10A U11A C12U C13G | 1.11
U7A U8C G9U U10G U11A C12U C13U | 1.2
U7G U8G G9A U10G U11C C13G | 1.08
U7G U8G G9C C12U C13U | 1.12
U7A U8C G9A U11C C12A C13G | 1.16
U8C G9C U10A U11G C12U C13A | 1.19
U8C G9U U10G U11C C12U C13U | 1.19
U8C G9A U10A U11G C12A C13G | 1.17
U8A G9U U11A C12A C13G | 1.18
U7A U8C G9C U11A C12G C13U | 1.13

Variant | aptazyme ON/OFF ratio
U7A U8C G9C U10G U11C C13A | 1.21
U7A U8C G9C U10C U11C | 0.989
U8G G9C U10A U11G C12A C13U | 1.16
U7C U8A G9C U11G C12U C13G | 1.14
U7A U8G G9A U11G C12U C13G | 1.44
U7G U8A G9A U10C U11C C12U | 1.06
U7A G9U U11C C12A C13A | 1.24
U7G U8C U10C U11G C12U | 1.3
U7C U8G C12G C13A | 1.09
U8C G9U U10G U11C C13U | 1.11
U8A G9U U10G C12A | 1.18
U8C G9C U10G U11C C12U C13U | 1.19
U7A U8A G9C U10G U11G C12U | 1.39
U10C U11G C13U | 1.35
U7A U11C C13U | 1.21
U8C G9A U10C U11C C12G C13G | 1.3
U8G U10C U11A C12U C13G | 1.14
U7C U8A G9C U10A U11A C12U | 1.2
U11C C12G C13G | 1.49
U7G U8G U10A U11C C12G C13U | 1.29
U7C U10G U11A C12U C13U | 1.22

Variant | aptazyme ON/OFF ratio
U7A U8C G9U U10C C12A | 1.27
U7G U8G U10C C13U | 1.81
U8G G9A U10C U11C C12U C13A | 1.04
U7C U8A G9C U10C U11G C12U C13U | 1.1
U7G U8G G9A U11C C12A C13A | 1.39
U8G U10A | 1.15
U7C U8G G9C U10A U11C C12U | 1.05
U8C U10A U11C C13U | 1.03
U7G U8C G9A U10A U11G C12G C13G | 1.14
U7G U8A G9U U10C U11A C12U | 1.11
U7A G9C U10A U11G C12U C13A | 1.03
U7C U8A G9A C12A C13G | 1.2
U7G U8G G9A U10C U11A C12G C13A | 1.04
U7G U8A G9U U10C U11A C12G C13G | 1.07
U7G G9U U10A U11A C13A | 1.28
U7A U8G G9C C12A C13U | 1.29
G9C U10A U11C C12G C13G | 1.44
U7C U8A G9A U10A U11G C12G C13A | 1.26
U7G U8C U10A C13A | 1.11
U7C U8A G9U C12G | 1.16
